Assay results taken from paper PMC4943706.

Target: Factor Xa
Experiment: SPR; FXa immobilised by amine coupling on a CM5 chip (1455.7 RU); Lofaxin as analyte at 1.95-31.25 nM; Biacore T100, 25°C, HBS-P buffer (10 mM HEPES, 150 mM NaCl, 0.005% P20, pH 7.4); global fit to the 1:1 Langmuir model

## recombinant Lofaxin (Lufaxin-like salivary protein of Bichromomyia olmeca) (natural protein)
  Kd: 1.83 nM
